We go through three molecules from patent US5082772A, “Process for preparing deacetylcephalosporin C” (priority 1988, dated 1992).

Values joined by “and” are separate entries in the source; they are usually repeats but may differ in a detail not shown here. Equal entries are not always repeated.

Data set [1] can be described thus: Stability (half-life) of native enzyme. In kind it is physicochemical, Streptomyces clavuligerus. An excerpt: The purified native enzyme obtained from cell-free extracts of S. clavuligerus can be partially stabilized by phenylmethylsulfonyl fluoride and ethanol.
The target of data set [2] is T1, recombinantly produced DAOC synthase (Streptomyces clavuligerus, UniProt P18548).
T1 construct: made in house; host or cells: Escherichia coli K12 JM109 (plasmid pOW382)
The data set is described as follows: Kinetics of recombinant enzyme (Lineweaver-Burk). In kind it is biochemical. Particulars: pH 7.0, 50 mM HEPES buffer, 36° C. The protocol:
The kinetics of the native enzyme and recombinant enzyme were determined under the optimal reaction conditions for the enzyme, i.e., at pH 7.0 in 50 mM HEPES buffer at 36° C.

A short description of data set [3]: Isoelectric points of purified enzyme. The settings on record: two distinct points. In kind it is physicochemical, Streptomyces clavuligerus.

B1: purified native enzyme: DAOC synthase obtained from cell-free extracts of S. clavuligerus (protein, UniProt P18548 1-311, looked up)
Deacetoxycephalosporin C …: MDTTVPTFSLAELQQGLHQDEFRRCLRDKGLFYLTDCGLTDTELKSAKDLVIDFFEHGSEAEKRAVTSPVPTMRRGFTGLESESTAQITNTGSYSDYSMCYSMGTADNLFPSGDFERIWTQYFDRQYTASRAVAREVLRATGTEPDGGVEAFLDCEPLLRFRYFPQVPEHRSAEEQPLRMAPHYDLSMVTLIQQTPCANGFVSLQAEVGGAFTDLPYRPDAVLVFCGAIATLVTGGQVKAPRHHVAAPRRDQIAGSSRTSSVFFLRPNADFTFSVPLARECGFDVSLDGETATFQDWIGGNYVNIRRTSKA
In general, half-life refers to how long it takes for the measured level to halve. Take B1: the half-life in data set [1] (not stabilized) stood at 20 h; in data set [1] (stabilized by phenylmethylsulfonyl fluoride and ethanol), 48 h.

B2: recombinant synthase: S. clavuligerus DAOC synthase (expandase) produced in recombinant E. coli and purified (protein, UniProt P18548 1-311, looked up)
Deacetoxycephalosporin C …: MDTTVPTFSLAELQQGLHQDEFRRCLRDKGLFYLTDCGLTDTELKSAKDLVIDFFEHGSEAEKRAVTSPVPTMRRGFTGLESESTAQITNTGSYSDYSMCYSMGTADNLFPSGDFERIWTQYFDRQYTASRAVAREVLRATGTEPDGGVEAFLDCEPLLRFRYFPQVPEHRSAEEQPLRMAPHYDLSMVTLIQQTPCANGFVSLQAEVGGAFTDLPYRPDAVLVFCGAIATLVTGGQVKAPRHHVAAPRRDQIAGSSRTSSVFFLRPNADFTFSVPLARECGFDVSLDGETATFQDWIGGNYVNIRRTSKA
modifications: recombinant, expressed in E. coli
notes: S. clavuligerus DAOC synthase (expandase) produced in recombinant E. coli and purified
For B2, the Vmax in data set [2] is 0.432 μmol DAOC formed/min/mg protein.

B3: purified enzyme: purified deacetoxycephalosporin C synthase of S. clavuligerus (protein, UniProt P18548 1-311, looked up)
Deacetoxycephalosporin C …: MDTTVPTFSLAELQQGLHQDEFRRCLRDKGLFYLTDCGLTDTELKSAKDLVIDFFEHGSEAEKRAVTSPVPTMRRGFTGLESESTAQITNTGSYSDYSMCYSMGTADNLFPSGDFERIWTQYFDRQYTASRAVAREVLRATGTEPDGGVEAFLDCEPLLRFRYFPQVPEHRSAEEQPLRMAPHYDLSMVTLIQQTPCANGFVSLQAEVGGAFTDLPYRPDAVLVFCGAIATLVTGGQVKAPRHHVAAPRRDQIAGSSRTSSVFFLRPNADFTFSVPLARECGFDVSLDGETATFQDWIGGNYVNIRRTSKA
In the case of B3, the isoelectric points in data set [3] is 5.3±0.2 and 6.1±0.2.
